# pKd: −log10 of the molar value.
# Target: human IL-15Rα (captured on the surface plasmon resonance sensor chip) (human) (UniProt Q13261)
# Assay: SPR
# UniProt Q13261, sequence (Q13261 31-267): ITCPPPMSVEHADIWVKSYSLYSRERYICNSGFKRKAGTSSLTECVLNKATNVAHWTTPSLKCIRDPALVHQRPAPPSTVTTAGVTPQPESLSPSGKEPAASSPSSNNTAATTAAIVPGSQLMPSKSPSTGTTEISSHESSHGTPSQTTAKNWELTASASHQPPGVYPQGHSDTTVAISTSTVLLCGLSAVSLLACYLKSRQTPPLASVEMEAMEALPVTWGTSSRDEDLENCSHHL
Substance,pKd,koff [s⁻¹],kon [M⁻¹ s⁻¹]
recombinant human interleukin-15 (rhIL-15) (from UniProt P40933 49-162) (ligand),10.72,9.3e-05,5.1e+06
"NKTR-255, polyethylene glycol-conjugate of recombinant human interleukin-15 (from UniProt P40933 49-162) (ligand)",10.07,6.7e-05,780000

# Reference: article PMC8130760
